Test results reported in US20250102513A1.

What was measured:
PA peptide [1] = assay: >
PA peptide [2] = assay: three sequential binding/encoding cycles with cycle-specific barcodes (BC4, BC5, BC13); NGS of the final product

share of extended recording tags with all three cycle barcodes (PA peptide [1]): 78% | share of extended recording tags with one barcode (PA peptide [2]): 1.1% | share of extended recording tags with two barcodes (PA peptide [2]): 20.7%
Substance: anti-PA antibody (Wako Chemicals)
